# Test results reported in US20260374880 (published 2026).
# “And” between values parts separate entries of the source, which are not always exact repeats. Equal values may be shown once.
# T1: human TGFbR1 ECD-133-myc(His)6 (human)
# T1 chain: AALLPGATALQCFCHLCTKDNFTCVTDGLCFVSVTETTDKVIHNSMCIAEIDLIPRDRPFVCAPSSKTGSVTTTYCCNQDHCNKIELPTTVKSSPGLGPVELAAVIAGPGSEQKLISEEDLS
# T2: human TGFbR1 ECD 33-125-myc(His)6 (human)
# T2 chain: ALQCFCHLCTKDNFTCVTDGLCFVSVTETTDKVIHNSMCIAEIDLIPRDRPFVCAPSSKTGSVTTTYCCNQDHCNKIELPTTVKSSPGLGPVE
# T3: TGFbR1 ECD V129G (human)
# T3 chain: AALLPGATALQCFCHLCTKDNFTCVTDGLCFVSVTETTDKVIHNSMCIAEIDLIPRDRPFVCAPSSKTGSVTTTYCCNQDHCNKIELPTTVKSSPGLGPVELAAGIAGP
# T4: murine TGFbR1 ECD-133-myc(His)6 (mouse, UniProt Q64729)
# T4 chain: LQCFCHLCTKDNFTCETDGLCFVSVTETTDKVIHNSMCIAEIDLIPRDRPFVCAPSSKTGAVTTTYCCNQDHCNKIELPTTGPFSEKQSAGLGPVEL
# T5: TGFbR1 ECD I130G (human)
# T5 chain: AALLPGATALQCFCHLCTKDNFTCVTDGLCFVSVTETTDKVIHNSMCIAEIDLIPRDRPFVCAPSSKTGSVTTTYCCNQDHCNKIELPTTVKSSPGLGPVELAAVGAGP
# T6: TGFbR1 ECD L126A (human)
# T6 chain: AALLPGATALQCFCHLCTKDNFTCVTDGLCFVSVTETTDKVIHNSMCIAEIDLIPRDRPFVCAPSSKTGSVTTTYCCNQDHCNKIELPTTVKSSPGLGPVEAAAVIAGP
# T7: TGFbR1 ECD P133A (human)
# T7 chain: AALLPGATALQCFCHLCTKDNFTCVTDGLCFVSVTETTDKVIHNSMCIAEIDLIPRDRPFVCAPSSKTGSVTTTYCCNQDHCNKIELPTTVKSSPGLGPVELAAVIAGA
# T8: TGFbR1 ECD G132A (human)
# T8 chain: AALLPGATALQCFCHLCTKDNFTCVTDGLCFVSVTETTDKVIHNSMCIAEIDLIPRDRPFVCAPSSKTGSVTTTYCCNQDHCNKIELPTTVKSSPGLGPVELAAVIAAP
# T9: endogenous TGFbR1 on cells (human)
# T9 chain: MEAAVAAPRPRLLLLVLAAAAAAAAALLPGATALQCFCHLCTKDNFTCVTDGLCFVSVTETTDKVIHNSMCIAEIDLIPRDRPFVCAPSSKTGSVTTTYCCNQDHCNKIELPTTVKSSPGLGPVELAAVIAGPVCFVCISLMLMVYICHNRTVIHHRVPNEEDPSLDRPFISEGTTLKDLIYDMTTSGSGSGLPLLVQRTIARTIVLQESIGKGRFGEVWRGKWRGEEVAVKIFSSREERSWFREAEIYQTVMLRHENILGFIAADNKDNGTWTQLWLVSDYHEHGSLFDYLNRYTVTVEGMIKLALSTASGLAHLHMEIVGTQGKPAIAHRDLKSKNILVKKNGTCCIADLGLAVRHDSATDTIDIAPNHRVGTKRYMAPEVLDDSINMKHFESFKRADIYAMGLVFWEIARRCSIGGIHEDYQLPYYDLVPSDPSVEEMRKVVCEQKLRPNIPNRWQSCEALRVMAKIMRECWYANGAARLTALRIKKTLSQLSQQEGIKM
# T10: human TGFbR1 ECD-133-huFc (human)
# T10 chain: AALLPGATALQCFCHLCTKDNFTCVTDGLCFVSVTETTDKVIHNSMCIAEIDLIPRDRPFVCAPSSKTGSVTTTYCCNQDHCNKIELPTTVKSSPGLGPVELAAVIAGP
# B1: mAb #19 murine chimeric IgG1 (antibody, V domains shown)
# VH: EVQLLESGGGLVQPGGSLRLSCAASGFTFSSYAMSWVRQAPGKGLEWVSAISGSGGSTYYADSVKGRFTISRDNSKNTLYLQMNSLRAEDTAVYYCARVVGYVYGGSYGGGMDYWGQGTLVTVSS
# VL: DIQMTQSPSSLSASVGDRVTITCRASQSISSYLNWYQQKPGKAPKLLIYAASSLQSGVPSRFSGSGSGTDFTLTISSLQPEDFATYYCQQGYGPLTFGQGTKLEIK
# B2: YU772-D10 (antibody, V domains shown)
# VH: EVQLLESGGGLVQPGGSLRLSCAASGFTFSSYPMSWVRQAPGKGLEWVSAISGYGGSTYYADSVKGRFTISRDNSKNTLYLQMNSLRAEDTAVYYCARVVGYVYDGSYGGGMDYWGQGTLVTVSS
# VL: DIQMTQSPSSLSASVGDRVTITCRASQSISSYLNWYQQKPGKAPKLLIYAASSLQSGVPSRFSGSGSGTDFTLTISSLQPEDFATYYCQQGYGPLTFGQGTKLEIK
# B3: YU772-F11 (antibody, V domains shown)
# VH: EVQLLESGGGLVQPGGSLRLSCAASGFTFSTYPMSWVRQAPGKGLEWVSAISGSGGSTYYADSVKGRFTISRDNSKNTLYLQMNSLRAEDTAVYYCARVVGYVYRGSYGGGMDYWGQGTLVTVSS
# VL: DIQMTQSPSSLSASVGDRVTITCRASQSISSYLNWYQQKPGKAPKLLIYAASSLQSGVPSRFSGSGSGTDFTLTISSLQPEDFATYYCQQGYGPLTFGQGTKLEIK
# B4: YU772-A11 (antibody, V domains shown)
# VH: EVQLLESGGGLVQPGGSLRLSCAASGFTFSSYAMSWVRQAPGKGLEWVSAISGSGGYTYYADSVKGRFTISRDNSKNTLYLQMNSLRAEDTAVYYCARVVGYVYDGAYGGGMDYWGQGTLVTVSS
# VL: DIQMTQSPSSLSASVGDRVTITCRASQSISSYLNWYQQKPGKAPKLLIYAASSLQSGVPSRFSGSGSGTDFTLTISSLQPEDFATYYCQQGYGPLTFGQGTKLEIK
# B5: YU772-D10_VH-YU772-C01_VL (antibody, V domains shown)
# VH: EVQLLESGGGLVQPGGSLRLSCAASGFTFSSYPMSWVRQAPGKGLEWVSAISGYGGSTYYADSVKGRFTISRDNSKNTLYLQMNSLRAEDTAVYYCARVVGYVYDGSYGGGMDYWGQGTLVTVSS
# VL: DIQMTQSPSSLSASVGDRVTITCRASQSIWSYLNWYQQKPGKAPKLLIYAASSLQSGVPSRFSGSGSGTDFTLTISSLQPEDFATYYCQQGYGPLTFGQGTKLEIK
# B6: YU771-B12 (antibody, V domains shown)
# VH: EVQLLESGGGLVQPGGSLRLSCAASGFTFSSYPMSWVRQAPGKGLEWVSAISGYGGSTYYADSVKGRFTISRDNSKNTLYLQMNSLRAEDTAVYYCARVVGYVYGGSYGGGMDYWGQGTLVTVSS
# VL: DIQMTQSPSSLSASVGDRVTITCRASQSISSYLNWYQQKPGKAPKLLIYAASSLQSGVPSRFSGSGSGTDFTLTISSLQPEDFATYYCQQGYGPLTFGQGTKLEIK
# B7: YU772-H05 (antibody, V domains shown)
# VH: EVQLLESGGGLVQPGGSLRLSCAASGFTFSSYAMSWVRQAPGKGLEWVSAISGSGGTTYYADSVKGRFTISRDNSKNTLYLQMNSLRAEDTAVYYCARVVGYVFGGYYGGGMDYWGQGTLVTVSS
# VL: DIQMTQSPSSLSASVGDRVTITCRASQSISSYLNWYQQKPGKAPKLLIYAASSLQSGVPSRFSGSGSGTDFTLTISSLQPEDFATYYCQQGYGPLTFGQGTKLEIK
# B8: YU772-G12 (antibody, V domains shown)
# VH: EVQLLESGGGLVQPGGSLRLSCAASGFPFSTYAMSWVRQAPGKGLEWVSAISGSGGYTYYADSVKGRFTISRDNSKNTLYLQMNSLRAEDTAVYYCARVVGYVYGGSYGGGMDYWGQGTLVTVSS
# VL: DIQMTQSPSSLSASVGDRVTITCRASQSISSYLNWYQQKPGKAPKLLIYAASSLQSGVPSRFSGSGSGTDFTLTISSLQPEDFATYYCQQGYGPLTFGQGTKLEIK
# B9: mAb #19 human IgG1-LALA (antibody, V domains shown)
# VH: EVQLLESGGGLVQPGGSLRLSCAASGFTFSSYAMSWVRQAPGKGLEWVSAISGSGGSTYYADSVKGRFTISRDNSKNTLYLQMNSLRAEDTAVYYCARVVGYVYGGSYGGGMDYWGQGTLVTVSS
# VL: DIQMTQSPSSLSASVGDRVTITCRASQSISSYLNWYQQKPGKAPKLLIYAASSLQSGVPSRFSGSGSGTDFTLTISSLQPEDFATYYCQQGYGPLTFGQGTKLEIK
# B10: YU771-E01 (antibody, V domains shown)
# VH: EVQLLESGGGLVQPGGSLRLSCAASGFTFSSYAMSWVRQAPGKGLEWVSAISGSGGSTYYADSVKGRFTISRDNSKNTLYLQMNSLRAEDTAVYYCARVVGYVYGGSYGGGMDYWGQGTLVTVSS
# VL: DIQMTQSPSSLSASVGDRVTITCRASESISSYLNWYQQKPGKAPKLLIYGASFLQWGVPSRFSGSGSGTDFTLTISSLQPEDFATYYCQQGYGPLTFGQGTKLEIK
# B11: YU771-A01 (antibody, V domains shown)
# VH: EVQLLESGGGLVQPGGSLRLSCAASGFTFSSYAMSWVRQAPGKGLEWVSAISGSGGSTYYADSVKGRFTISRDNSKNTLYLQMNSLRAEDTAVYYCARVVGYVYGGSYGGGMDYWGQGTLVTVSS
# VL: DIQMTQSPSSLSASVGDRVTITCRASQSISSYLNWYQQKPGKAPKLLIYGASFLQYGVPSRFSGSGSGTDFTLTISSLQPEDFATYYCQQGYGPLTFGQGTKLEIK
# B12: Antibody 19 (parental) (antibody, V domains shown)
# VH: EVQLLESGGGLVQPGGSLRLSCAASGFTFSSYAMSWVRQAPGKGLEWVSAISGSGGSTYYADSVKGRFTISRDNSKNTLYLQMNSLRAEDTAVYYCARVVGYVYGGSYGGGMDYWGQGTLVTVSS
# VL: DIQMTQSPSSLSASVGDRVTITCRASQSISSYLNWYQQKPGKAPKLLIYAASSLQSGVPSRFSGSGSGTDFTLTISSLQPEDFATYYCQQGYGPLTFGQGTKLEIK
# B13: YU772-G04_VH-YU771-A09-VL (antibody, V domains shown)
# VH: EVQLLESGGGLVQPGGSLRLSCAASGFPFSSYAMSWVRQAPGKGLEWVSAISGSGGTTYYADSVKGRFTISRDNSKNTLYLQMNSLRAEDTAVYYCARVAGYVHRGFYGGGMDYWGQGTLVTVSS
# VL: DIQMTQSPSSLSASVGDRVTITCRASQSIYSHLNWYQQKPGKAPKLLIYAASTLQSGVPSRFSGSGSGTDFTLTISSLQPEDFATYYCQQAYGPLTFGQGTKLEIK
# Columns and labels:
# [1] = target: T1, human TGFbR1 ECD-133-myc(His)6; test: ELISA
# [2] = target: T1, human TGFbR1 ECD-133-myc(His)6; test: BLI
# [3] = target: T2, human TGFbR1 ECD 33-125-myc(His)6; test: ELISA
# [4] = target: T1, human TGFbR1 ECD-133-myc(His)6; test: BLI
# TGFbR1 ECD V129G = target: T3, TGFbR1 ECD V129G; test: ELISA
# [5] = target: T4, murine TGFbR1 ECD-133-myc(His)6; test: BLI
# TGFbR1 ECD I130G = target: T5, TGFbR1 ECD I130G; test: ELISA
# TGFbR1 ECD L126A = target: T6, TGFbR1 ECD L126A; test: ELISA
# [6] = target: T1, human TGFbR1 ECD-133-myc(His)6; test: SPR, biotinylated mAb
# TGFbR1 ECD P133A = target: T7, TGFbR1 ECD P133A; test: ELISA
# [7] = target: T1, human TGFbR1 ECD-133-myc(His)6; test: SPR
# TGFbR1 ECD G132A = target: T8, TGFbR1 ECD G132A; test: ELISA
# [8] = target: T9, endogenous TGFbR1 on cells; test: FACS, PC-3U cells
# [9] = target: T9, endogenous TGFbR1 on cells; test: FACS, RWPE cells
# [10] = target: T10, human TGFbR1 ECD-133-huFc; test: BLI
# [11] = target: T1, human TGFbR1 ECD-133-myc(His)6; test: BLI
# [12] = target: T10, human TGFbR1 ECD-133-huFc; test: ELISA
Binder,Kd [11],EC50 [12],also measured
B1,,,IC50 [1]: 0.104 nM; Kd [2]: 3.74 nM; binding result [3]: no binding; Kd [4]: 3.7 nM; binding result (TGFbR1 ECD V129G): no binding; Kd [5]: 18 nM; binding result (TGFbR1 ECD I130G): no binding; binding result (TGFbR1 ECD L126A): no binding; Kd [6]: 2.5 nM and 2.3 nM and 1.8 nM; binding result (TGFbR1 ECD P133A): no binding; Kd [7]: 5.6 nM and 6.5 nM; binding result (TGFbR1 ECD G132A): no binding; Kd [8]: 10.7 nM; Kd [9]: 7.81 nM; Kd [10]: 13 nM
B2,7.8 nM,0.0225 µg/mL,
B3,7.6 nM,0.0249 µg/mL,
B4,7.9 nM,0.0314 µg/mL,
B5,7.3 nM,0.0303 µg/mL,
B6,16 nM,0.0244 µg/mL,
B7,12 nM,0.03 µg/mL,
B8,8.7 nM,0.0213 µg/mL,
B9,,,IC50 [1]: 0.139 nM; Kd [4]: 5.9 nM
B10,8.9 nM,0.0231 µg/mL,
B11,11 nM,0.022 µg/mL,
B12,22 nM,0.139 µg/mL,
B13,8.8 nM,0.0257 µg/mL,
